{"source": "patent US12240882B2", "about": "“Fusion proteins comprising an engineered knottin peptide and uses thereof” (The Board of Trustees of the Leland Stanford Junior …, priority 2010, dated 2025)", "molecules": {"B1": {"name": "Wt EETI-Axl: Wild-type EETI-II fused to the Axl Ig1 N-terminus (protein)", "chain": "GCPRILMRCKQDSDCLAGCVCGPNGFCGSRGTQAEESPFVGNPGNITGARGLTGTLRCQLQVQGEPPEVHWLRDGQILELADSTQTQVPLGEDEQDDWIVVSQLRITSLQLSDTGQYQCLVFLGHQTFVSQPGYVGLEGLP"}, "B2": {"name": "Axl S6-1: engineered Axl Ig1, G32S, D87G, V92A, G127R, SEQ ID NO: 62 (protein)", "chain": "APRGTQAEESPFVSNPGNITGARGLTGTLRCQLQVQGEPPEVHWLRDGQILELADSTQTQVPLGEDEQGDWIVASQLRITSLQLSDTGQYQCLVFLGHQTFVSQPGYVRLEGLP"}, "B3": {"name": "AgRp7A-M2.2(D127A): AgRP 7A knottin fused to NK1 fragment of HGF (M2.2 (D127A)), SEQ ID NO: 86 (protein)", "chain": "DYKDDDDKPRGCVRLHESCLGQQVPCCDPAATCYCSGRGDNDLVCYCRYAEGQRKRRNTIHEFKKSAKTTLIKIDPALKIKTEKVNTADQCANRCTRNKGLPFTCKAFVFDKARKRCLWFPFNSMSSGVKKEFGHEFDLYENKDYIRACIIGNGRSYRGTVSITKSGIKCQPWSSMIPHEHSFLPSSYRGEDLRENYCRNPRGEEGGPWCFTSDPEVRYEVCDIPQCSEVETRHHHHHH"}, "B4": {"name": "AgRp7A-Aras4: AgRP 7A knottin fused to NK1 fragment of HGF (Aras4), SEQ ID NO: 66 (protein)", "chain": "B3 chain with R54G, K79R, V85A, N98S, D144A, A148D, N153R, S156N, S175A, F211Y"}, "B5": {"name": "AgRp7A-M2.2: AgRP 7A knottin fused to NK1 fragment of HGF (M2.2), SEQ ID NO: 85 (protein)", "chain": "B3 chain with A148D"}, "B6": {"name": "EETI2.5F-M2.2(D127A): EETI 2.5F knottin fused to NK1 fragment of HGF (M2.2 (D127A)), SEQ ID NO: 89 (protein)", "chain": "DYKDDDDKPRGCPRPRGDNPPLTCSQDSDCLAGCVCGPNGFCGYAEGQRKRRNTIHEFKKSAKTTLIKIDPALKIKTEKVNTADQCANRCTRNKGLPFTCKAFVFDKARKRCLWFPFNSMSSGVKKEFGHEFDLYENKDYIRACIIGNGRSYRGTVSITKSGIKCQPWSSMIPHEHSFLPSSYRGEDLRENYCRNPRGEEGGPWCFTSDPEVRYEVCDIPQCSEVETRHHHHHH"}, "B7": {"name": "EETI2.5F-M2.2: EETI 2.5F knottin fused to NK1 fragment of HGF (M2.2), SEQ ID NO: 88 (protein)", "chain": "B6 chain with A143D"}}, "key": {"HUVECs": {"test_system": "HUVECs", "assay": "HUVEC proliferation assay stimulated with HGF", "conditions": "0.5 nM HGF"}, "U87MG cells": {"test_system": "U87MG cells", "assay": "Binding of AgRP mutant 7A to U87MG cells", "conditions": "read-out: KD against U87MG cells", "from_the_text": "(§1) The αvβ3 integrin receptor is over-expressed on many solid tumor cells making it an important cancer target. The Agouti related protein (AgRP), a cystine-knot peptide, contains four disulfide bonds and four solvent-exposed loops. It was engineered to target αvβ3 integrin receptors with pM binding affinity."}, "Met receptor": {"target": "T1, Met receptor (Homo sapiens, UniProt P08581)", "T1 construct": "PC3 cells express medium levels of the αvβ3 integrin and Met; endogenous in cells; host or cells: PC3 prostate cancer cells", "assay": "Met receptor phosphorylation assay in PC3 cells", "type": "cell-based", "conditions": "0.3 nM HGF, Western blot", "experimental": "A Met receptor phosphorylation assay was performed in PC3 (prostate cancer cells). Met receptor phosphorylation was assayed by Western blot after stimulation with 0.3 nM HGF. […] (Note: PC3 cells express medium levels of the αvβ3 integrin and Met, and low levels of the α5β1 integrin)."}, "K562-αvβ3 cells": {"test_system": "K562-αvβ3 cells", "assay": "Binding of AgRP mutant 7A to K562-αvβ3 cells", "conditions": "read-out: KD against K562-αvβ3 cells", "from_the_text": "as §1"}, "αvβ3 integrin": {"target": "αvβ3 integrin (Homo sapiens, UniProt P05106+P06756)", "assay": "cRGD competition of EETI 2.5D-Axl binding to K562-αvβ3 cells"}, "Gas6 [1]": {"target": "T2, Gas6 (Homo sapiens, UniProt Q14393)", "T2 sequence (Q14393 31-678)": "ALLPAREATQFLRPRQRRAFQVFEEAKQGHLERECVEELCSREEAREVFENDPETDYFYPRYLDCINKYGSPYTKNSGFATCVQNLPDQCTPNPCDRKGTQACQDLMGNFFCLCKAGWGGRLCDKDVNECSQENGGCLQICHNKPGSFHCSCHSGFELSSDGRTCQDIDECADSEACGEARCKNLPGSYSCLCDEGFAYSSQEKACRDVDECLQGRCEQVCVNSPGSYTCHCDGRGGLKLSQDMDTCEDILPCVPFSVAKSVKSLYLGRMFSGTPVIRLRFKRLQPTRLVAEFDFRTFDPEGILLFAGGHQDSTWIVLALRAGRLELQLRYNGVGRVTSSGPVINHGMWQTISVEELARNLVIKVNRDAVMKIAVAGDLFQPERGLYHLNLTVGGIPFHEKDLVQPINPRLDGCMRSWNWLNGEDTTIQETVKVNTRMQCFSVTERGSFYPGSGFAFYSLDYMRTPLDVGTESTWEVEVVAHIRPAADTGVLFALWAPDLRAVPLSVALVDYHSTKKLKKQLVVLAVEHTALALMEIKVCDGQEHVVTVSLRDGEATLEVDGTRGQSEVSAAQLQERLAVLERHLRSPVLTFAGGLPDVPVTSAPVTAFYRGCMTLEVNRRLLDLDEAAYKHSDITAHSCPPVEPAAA", "assay": "Yeast surface display equilibrium binding to soluble Gas6", "set-up": "purchased R&D Systems"}, "Gas6 [2]": {"target": "T2, Gas6", "assay": "Equilibrium binding of engineered Axl Ig1 clones to Gas6", "conditions": "binding to Gas6, versus wild-type Axl Ig1"}, "[3]": {"assay": "Melting temperature of engineered Axl Ig1 clone", "conditions": "versus wild-type Axl Ig1"}, "[4]": {"test_system": "human umbilical vein endothelial cells (HUVECs)", "assay": "HUVEC cell binding assay of knottin-NK1 fusions", "conditions": "read-out: binding affinity (KD) towards HUVECs", "from_the_text": "HUVECs express medium levels of the αvβ3, αvβ5 integrins, the Met receptor, and a high level of the […] integrin."}, "human Met-Fc": {"target": "human Met-Fc (Homo sapiens, UniProt P08581)", "assay": "Dual receptor direct binding assay on K562-αvβ3 cells", "conditions": "Met-Fc 220 nM, proteins 2 or 20 nM", "experimental": "In this experiment, a mixture of soluble Alexa-488 labeled human Met-Fc (220 nM) and the mono-specific and the multi-specific proteins (2 or 20 nM) were added to K562-αvβ3 cells. Binding was detected by flow cytometry."}, "[5]": {"assay": "Serum stability, Western Blot", "type": "in vitro ADME", "conditions": "40% human serum, 37° C., 7 days", "experimental": "Serum stability of AgRp7A-M2.2(D127A) and EETI2.5F-M2.2(D127A) was shown when the proteins were incubated with 40% human serum at 37° C. for over several days. Samples were analyzed by Western Blot and detected with an antibody against the FLAG epitope tag."}}, "note": "Numbering of substitutions follows the chain as printed. Names and notes keep the numbering of the source. “Also recorded” adds a separate entry of the source. Ends that are not written are not given here.", "data": [{"molecule": "AgRP mutant, SEQ ID NO: 36 GCVRLHESCLGQQVPCCDPAATCYCSGRGDNDLVCYCR (ends and bridges not checked; cysteine pairing not given here) [AgRp7A]", "values": [{"measurement": "inhibitory effect on HUVEC proliferation", "setting": "HUVECs", "result": "little inhibitory effect"}, {"measurement": "Kd", "setting": "U87MG cells", "result": 0.78, "unit": "nM"}, {"measurement": "inhibition of Met phosphorylation", "setting": "Met receptor", "result": "did not show inhibition"}, {"measurement": "Kd", "setting": "K562-αvβ3 cells", "result": 0.89, "unit": "nM"}]}, {"molecule": "EETI RGD mutant binding αvβ3, αvβ5, α5β1, SEQ ID NO: 33 GCPRPRGDNPPLTCKQDSDCLAGCVCGPNGFCG (ends and bridges not checked; cysteine pairing not given here) [EETI2.5F]", "values": [{"measurement": "inhibitory effect on HUVEC proliferation", "setting": "HUVECs", "result": "good inhibition"}, {"measurement": "inhibition of HUVEC proliferation", "setting": "HUVECs; 1 μM, cells alone=90% inhibition", "result": 70, "unit": "%"}]}, {"molecule": "cRGD [reference compound]", "values": [{"measurement": "binding of EETI 2.5D-Axl to K562-αvβ3 cells with molar excess of cRGD", "setting": "αvβ3 integrin", "result": "inhibits the binding"}]}, {"molecule": "B1", "values": [{"measurement": "affinity / binding to Gas6", "setting": "Gas6 [1]", "result": "same affinity as wild-type Axl"}]}, {"molecule": "B2", "values": [{"measurement": "fold improvement in equilibrium binding over wild-type", "setting": "Gas6 [2]", "result": 20, "unit": "fold"}, {"measurement": "improvement in melting temperature over wild-type", "setting": "[3]", "result": 13, "unit": "°C"}]}, {"molecule": "B3", "values": [{"measurement": "Kd", "setting": "[4]", "result": "9.4 ± 1", "unit": "nM"}, {"measurement": "simultaneous binding to soluble Met-Fc and αvβ3 integrin on cells", "setting": "human Met-Fc", "result": "able to bind to soluble Met-Fc"}, {"measurement": "inhibitory effect on HUVEC proliferation", "setting": "HUVECs", "result": "higher inhibitory effects"}, {"measurement": "amount of intact fusion protein in serum", "setting": "[5]", "result": "No significant decrease"}]}, {"molecule": "B4", "values": [{"measurement": "inhibition of Met phosphorylation", "setting": "Met receptor", "result": "Dose dependent decreases; also recorded: slightly higher inhibitory effects"}]}, {"molecule": "B5", "values": [{"measurement": "simultaneous binding to soluble Met-Fc and αvβ3 integrin on cells", "setting": "human Met-Fc", "result": "able to bind to soluble Met-Fc"}]}, {"molecule": "B6", "values": [{"measurement": "Kd", "setting": "[4]", "result": "4.7 ± 0.6", "unit": "nM"}, {"measurement": "simultaneous binding to soluble Met-Fc and αvβ3 integrin on cells", "setting": "human Met-Fc", "result": "able to bind to soluble Met-Fc"}, {"measurement": "inhibitory effect on HUVEC proliferation", "setting": "HUVECs", "result": "higher inhibitory effects"}, {"measurement": "amount of intact fusion protein in serum", "setting": "[5]", "result": "No significant decrease"}]}, {"molecule": "B7", "values": [{"measurement": "simultaneous binding to soluble Met-Fc and αvβ3 integrin on cells", "setting": "human Met-Fc", "result": "able to bind to soluble Met-Fc"}]}]}
